From paper PMC5320558, “The general PTS component HPr determines the preference for glucose over mannitol” (Scientific Reports, 2017) come the findings set out here.

The target in series [1] is Untagged HPr (wild type) (E. coli) (UniProt P0AA04). Description: SEC; gel filtration on Superose 12 10/300 GL of MtlR alone, HPr alone and their mixture; fractions analysed by SDS-PAGE. (SEC sorts molecules by how far they enter the pores of the column.)
Series [2] has the same target. The series can be described thus: SPR; HPr immobilised on a CM5 sensor chip, various concentrations of MtlR applied; BIAcore 3000; BIAevaluation, assuming a 1:1 interaction. (SPR reads the build-up and loss of mass on a sensor chip optically.)
Series [3] deals with the molecule itself. The series can be described thus: SEC; gel filtration on Superose 12 10/300 GL of MtlR alone, HPr alone and their mixture; fractions analysed by SDS-PAGE.

Regarding “Untagged MtlR (mannitol operon repressor) (from UniProt P0AF10 1-195) (natural protein)”, in series [1], the stoichiometry N (in general, a count of units in the complex or per binding partner) was 1 HPr:MtlR. For the same molecule, the Kd (in general, the free concentration of one partner at which half of the binding sites on the other are occupied at equilibrium, for simple one-to-one binding) in series [2] turned out to be 62.2 nM.

B1: Untagged MtlR (mannitol operon repressor) (natural protein, E. coli, UniProt P0AF10 1-195, looked up)
chain: MVDQAQDTLRPNNRLSDMQATMEQTQAFENRVLERLNAGKTVRSFLITAVELLTEAVNLLVLQVFRKDDYAVKYAVEPLLDGDGPLGDLSVRLKLIYGLGVINRQEYEDAELLMALREELNHDGNEYAFTDDEILGPFGELHCVAALPPPPQFEPADSSLYAMQIQRYQQAVRSTMVLSLTELISKISLKKAFQK
notes: MtlR, transcriptional repressor of the mtl operon, E. coli; monomer approximately 22.0 kDa; Eluted as a tetramer in gel filtration; source: overexpressed, purified (MonoQ, Superdex 75)
On to B1, for which the “stoichiometry N” value in series [3] came to 4.
